# IntAct's records for PubMed 15694340
# B1: Phorbol-12-myristate-13-acetate-induced protein 1 (Homo sapiens), Q13794 (parent)
# chain: MPGKKARKNAQPSPARAPAELEVECATQLRRFGDKLNFRQKLLNLISKLFCSGT
# partner: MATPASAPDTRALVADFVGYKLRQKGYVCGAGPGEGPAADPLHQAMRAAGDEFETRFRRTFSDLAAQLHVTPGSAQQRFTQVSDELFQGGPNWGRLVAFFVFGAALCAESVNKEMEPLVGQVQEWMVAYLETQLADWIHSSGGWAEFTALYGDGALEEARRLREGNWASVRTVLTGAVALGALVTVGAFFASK
# B2: Bcl-2-like protein 11 (Mus musculus), O54918 (parent)
# chain: MAKQPSDVSSECDREGGQLQPAERPPQLRPGAPTSLQTEPQGNPDGEGDRCPHGSPQGPLAPPASPGPFATRSPLFIFVRRSSLLSRSSSGYFSFDTDRSPAPMSCDKSTQTPSPPCQAFNHYLSAMASIRQSQEEPEDLRPEIRIAQELRRIGDEFNETYTRRVFANDYREAEDHPQMVILQLLRFIFRLVWRRH
# B3: Phorbol-12-myristate-13-acetate-induced protein 1 (Homo sapiens), Q13794 (parent)
# chain: B1 chain
# Variants of: B1
# Conditions: with BCL2L2, Q92843
row,effect of a mutation on the interaction,Variant
1,increasing interaction,K35E
2,increasing interaction,F32I

# Variants of: B2
# Conditions: with mcl1_mouse Mcl1, P97287
# Chain of mcl1_mouse Mcl1, P97287 (P97287 whole entry): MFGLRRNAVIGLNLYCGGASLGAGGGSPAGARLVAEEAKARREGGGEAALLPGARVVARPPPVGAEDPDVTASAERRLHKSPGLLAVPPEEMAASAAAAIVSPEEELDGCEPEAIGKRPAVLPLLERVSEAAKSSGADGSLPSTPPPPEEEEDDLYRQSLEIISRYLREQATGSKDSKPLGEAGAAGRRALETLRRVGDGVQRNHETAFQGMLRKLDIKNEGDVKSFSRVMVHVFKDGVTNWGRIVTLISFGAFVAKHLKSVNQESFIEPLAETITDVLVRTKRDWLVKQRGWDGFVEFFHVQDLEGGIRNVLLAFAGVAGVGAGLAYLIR
row,Variant,effect of a mutation on the interaction
1,I146E,decreasing interaction
2,L150E,decreasing interaction

# Continued, values first:
row,effect of a mutation on the interaction,Variant
1,decreasing interaction,I153E
2,decreasing interaction,F157E

# Variants of: B3
# Conditions: with BCL2L1, Q07817-1
# Chain of BCL2L1, Q07817-1 (Q07817 whole entry): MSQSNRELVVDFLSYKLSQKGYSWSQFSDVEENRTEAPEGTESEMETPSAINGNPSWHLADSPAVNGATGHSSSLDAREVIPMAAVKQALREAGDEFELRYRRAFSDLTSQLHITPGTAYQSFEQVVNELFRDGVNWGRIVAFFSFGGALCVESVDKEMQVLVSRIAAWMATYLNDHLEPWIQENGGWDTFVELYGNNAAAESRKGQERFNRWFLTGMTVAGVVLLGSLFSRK
row,effect of a mutation on the interaction,Variant
1,increasing interaction,K35E
2,increasing interaction,F32I
